Values of other authors in PMC4492699.

Molecular target: HER2 (Homo sapiens) (UniProt P04626)

For trastuzumab, the Kd is given as 0.1 nM.
